The data set concerns the molecule itself. The experiment in a line: SEC-SAXS. For orientation: SEC sorts molecules by how far they enter the pores of the column.

B1: full-length rat phenylalanine hydroxylase (wt-PheH) (enzyme, UniProt P04176 1-453, looked up)
chain: MAAVVLENGVLSRKLSDFGQETSYIEDNSNQNGAISLIFSLKEEVGALAKVLRLFEENDINLTHIESRPSRLNKDEYEFFTYLDKRTKPVLGSIIKSLRNDIGATVHELSRDKEKNTVPWFPRTIQELDRFANQILSYGAELDADHPGFKDPVYRARRKQFADIAYNYRHGQPIPRVEYTEEEKQTWGTVFRTLKALYKTHACYEHNHIFPLLEKYCGFREDNIPQLEDVSQFLQTCTGFRLRPVAGLLSSRDFLGGLAFRVFHCTQYIRHGSKPMYTPEPDICHELLGHVPLFSDRSFAQFSQEIGLASLGAPDEYIEKLATIYWFTVEFGLCKEGDSIKAYGAGLLSSFGELQYCLSDKPKLLPLELEKTACQEYSVTEFQPLYYVAESFSDAKEKVRTFAATIPRPFSVRYDPYTQRVEVLDNTQQLKILADSINSEVGILCNALQKIKS
For B1, the stoichiometry N (in general, the number of molecules, sites or subunits per partner or assembly) worked out at 4.

The values are drawn from paper PMC4896396 (Journal of the American Chemical Society, 2016).
